The assay deals with human NaV1.8 alpha-subunit (human, UniProt Q9Y5Y9 1-1956, M1713V). In words: cryo-EM structure.

We go through 1 molecule from PMC11383277 (bioRxiv, 2024).

For ECRYWLGGCSAGQTCCKHLVCSRRHGWCVWDGTFS [Protoxin-I], the binding result is “binds”.
